From publication PMC10478764 come the findings set out here.

In this assay the target is Mu8.1 conotoxin from Conus mucronatus (Conus mucronatus). The experiment in a line: crystal structure.

In general, stoichiometry N refers to the number of molecules, sites or subunits per partner or assembly. On to “Mu8.1 conotoxin from Conus mucronatus (natural protein)”, for which the stoichiometry N was determined as 2.
